In patent publication US9751932B2, “Anti-big-endothelin-1 (big-ET-1) antibodies and uses thereof” (Regeneron Pharmaceuticals, Inc., priority 2012, dated 2017):
Residue numbers refer to the chain shown, from its start. Names and notes keep the numbering of the source.

T1: human big-ET-1 (SEQ ID NO:434) (Homo sapiens, UniProt P05305)
T1 sequence (P05305 53-90 limits assumed): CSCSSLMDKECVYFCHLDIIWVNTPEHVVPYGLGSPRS

T2: mouse big-ET-1 (SEQ ID NO:437) (Mus musculus, UniProt P22387)
T2 sequence (P22387 53-91 limits assumed): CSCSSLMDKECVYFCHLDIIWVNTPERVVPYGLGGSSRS

B1: H1M6492N: anti-big-ET-1 hybridoma antibody, H1M Fc; HCVR/LCVR SEQ ID NO: 34/42 (antibody, V domains shown)
VH: EVQLVESGGGLVKPGGSLRVSCVASGFTFSNAWMTWVRQTPGKGLECVGRIKSRTDGGTVDYVAPVKGRFTISRDDSKNTLYLQMNSLKAEDTAVYYCRADLDYWGQGTLVTVSS
VL: DVVMTQSPLSLPVSLGQPASISCRSSQSLVHSDGITYLNWFQQRPGQSPRRLIYKISNRDSGVPDRFSGSGSGTDFTLKFSRVEAEDVGVYFCMQGTHWPYTFGQGTKLEIK
modifications: mouse Fc
B2: H1M6494N: anti-big-ET-1 hybridoma antibody, H1M Fc; HCVR/LCVR SEQ ID NO: 50/58 (antibody, V domains shown)
VH: B1 VH
VL: B1 VL
modifications: mouse Fc
B3: H4H6317P: anti-big-ET-1 antibody, human IgG4 Fc; HCVR/LCVR SEQ ID NO: 130/138 (antibody, V domains shown)
VH: QVQLVESGGGVVQPGRSLRLSCAASGFTFSSYGMHWVRQAPGKGLEWVAVLWYDGRNKYYADSVKGRFTISRDNSKNTLYLQMNSLRAEDTAVYYCARSYDAFDIWGQGTMVTVSS
VL: DIQMTQSPSTLSASVGDRVTITCRASQSISSWLAWFQQGPGRAPKLLIYKASTLQSGVPSRFSGSGSGTEFTLTISSLQPDDFATYYCQQYRSYSPTFGQGTKVEIK
modifications: human IgG4 Fc
B4: H4H6353P: anti-big-ET-1 antibody, human IgG4 Fc; HCVR/LCVR SEQ ID NO: 386/394 (antibody, V domains shown)
VH: EVQLVESGGGLVKPGGSLRLSCAASGFSFNYAWMSWVRQAPGKGLEWIGRIKSKINGGTTDYTAPVKGRFTISRDDSKNTLYLQMNSLKTEDTAVYYCRGDEDFWGQGTLVTVSS
VL: B1 VL with S14T, H31Y, I35F, Q42R, I56V, K79R, F80I, V90I, F92Y
modifications: human IgG4 Fc
B5: H4H6323P: anti-big-ET-1 antibody, human IgG4 Fc; HCVR/LCVR SEQ ID NO: 146/154 (antibody, V domains shown)
VH: QITLKESGPPLVKPTQTLTLTCTFSGFSLNTNGMGVGWIRQPPGKALEWLTLIYWNDDKRYSPSLKTRLTITKDTSKNQVVLTMTNMDPVDTATYYCARFGSGTYWGQGTLVTVSS
VL: DIVMTQSPLSLPVTPGEPASISCRSSQSLLHSYGYNFLDWFLQKPGQSPQLLIYLGSHRASGVPDRFSGSGSGTDFTLKISRVEAEDVGVYYCMQALQTPLTFGGGTKVEIK
modifications: human IgG4 Fc
B6: H4H6329P: anti-big-ET-1 antibody, human IgG4 Fc; HCVR/LCVR SEQ ID NO: 194/202 (antibody, V domains shown)
VH: QVQLVESGGGVVQPGRSLRLSCAASGFTFGSYGMHWVRQAPGKGLEWVAVIWYDGSDEYYTDSVKGRFTVSRDNSKYTLYLQMNSLRADDTAVYYCARDGYRTRGNYFDYWGQGTLVTVSS
VL: DVVMTQSPLSLPVALGQPASISCRSSQSLVYSDGNTYLNWFQQRPGQSPRRLIYKVSNRDSGVPDRFGGSGSGTDFTLKISRVEAEDVGLYYCMQGTHWPPTFGGGTKVEIK
modifications: human IgG4 Fc
B7: H4H6330P: anti-big-ET-1 antibody, human IgG4 Fc; HCVR/LCVR SEQ ID NO: 210/218 (antibody, V domains shown)
VH: EVQLVESGGGLVQPGGSLRLSCAASGFTFSNYAMSWVRQAPGKGLEWVSAVSGSGVGTYYADSVKGRFTISRDNSKNTLYLQMKSLSAEDTALYYCTKTLGGTHAFDIWGQGTMVTVSS
VL: DIQMTQSPSTLSASVGDRVTITCRASQSISRWLAWYQQKPGKAPKLLIYKASSLESGVPSRFSGSGSGTEFTVTINSLQPDDFATYYCQQYNSYSSFGQGTKLEIK
modifications: human IgG4 Fc
B8: H4H6345P: anti-big-ET-1 antibody, human IgG4 Fc; HCVR/LCVR SEQ ID NO: 354/362 (antibody, V domains shown)
VH: EVQLVESGGGLVQPGGSLRLSCAASGFIFSSYAMTWVRQAPGKGLEWVSAISGSGVSTYYADSVKGRFTISRDNSKNTLYLQMNSLRIEDTAVYYCGKARTGTHAFDIWGQGTMVTVSS
VL: B7 VL with S56T, V73L, N76S, A84G, Q99P, L103V, E104D
modifications: human IgG4 Fc

Target: T1, human big-ET-1 (SEQ ID NO:434)
Assay: Surface plasmon resonance (Biacore) binding, mAb capture format, 37° C.
Conditions: not given
Experimental: (§1) Measurements were conducted on a T200 Biacore instrument (Biacore Life Sciences division of GE Healthcare, Piscataway, N.J.). […] Different concentrations of small-ET-1 (SEQ ID NO:435), human big-ET-1 (SEQ ID NO:434) or mouse big-ET-1 (SEQ ID NO:437) were injected over the anti-big-ET-1 captured surfaces at a flow rate of 100 μl/min. Peptide binding was monitored for 3 min while dissociation of mAb-bound peptide was monitored for 4 min in HBST running buffer (0.01 M HEPES pH 7.4, 0.15 M NaCl, 3 mM EDTA, 0.005% v/v Surfactant P20). Kinetic association (ka) and dissociation (kd) rate constants were determined by processing and fitting the data to a 1:1 binding model using Scrubber 2.0 curve fitting software.

Row | binding to human big-ET-1 (in words) | Molecule
1 | high affinity binding | B1
2 | high affinity binding | B2
3 | high affinity binding | B3

Same assay, conditions: analyte human big-ET-1, mAb capture

Row | ka [M/s] | kd [s⁻¹] | Molecule
4 | 248000 | 0.0016 | B1
5 | 239000 | 0.00169 | B2
6 | 1.14e+06 | 0.00116 | B4
7 | 36700 | 0.000199 | B3
8 | 565000 | 0.00569 | B5
9 | 595000 | 0.000176 | B6
10 | 1.42e+06 | 0.0324 | B7
11 | 663000 | 0.058 | B8

Target: T2, mouse big-ET-1 (SEQ ID NO:437)
Assay: as above
Conditions: not given
Experimental: as §1

Row | binding to mouse big-ET-1 (in words) | Molecule
12 | did not show any binding | B1
13 | did not show any binding | B2
14 | did not show any binding | B3

Same assay, conditions: analyte mouse big-ET-1, mAb capture

Row | ka [M/s] | kd [s⁻¹] | Molecule
15 | 2900 | 0.00236 | B4
16 | 580000 | 0.0192 | B5
17 | 11600 | 0.000223 | B6
18 | 1.5e+06 | 0.072 | B7
19 | 1.5e+06 | 0.0974 | B8

Same assay, conditions: analyte mouse big-ET-1, mAb capture, KD=kd/ka

Row | Kd [µM] | Molecule
20 | > 1 | B1
21 | > 1 | B2
22 | > 1 | B3
